Two molecules from patent US11110182B2, “Multifunctional RNA nanoparticles and methods for treating cancer and therapeutic resistant cancer” (University of Cincinnati, priority 2016, dated 2021) can be followed below.

The series deals with MED1. The series can be described thus: MED1 protein level by western blots in MDA-MB-231 cells. It counts as cell-based, human. The conditions noted are these: MDA-MB-231, transfected, 48 h. An excerpt: FIG. 8A) HER2 expression in BT474 and MDA-MB-231 cells determined by western blot analyses. FIG. 8B) The binding of AF-647-labeled pRNA-HER2apt-siMED1 and its mutant nanoparticles to MDA-MB-231 and BT474 cells examined by confocal microscopy. Green represents the immunofluorescent staining of HER2, and blue represents nuclear staining with DAPI. FIG. 8C) The internalization of AF647-labeled pRNA nanoparticles by MDA-MB-231 cells examined by confocal microscopy. Green represents the immunofluorescent staining of β-actin. Scale bar: 10 μm. FIG. 8D) The cellular uptake of AF647-labeled pRNA nanoparticles by MDA-MB-231 cells quantified by flow cytometry. FIG. 8E) HER2 expression in BT474 xenograft tumors was examined by western blot analyses. FIG. 8F) MDA-MB-231 cells were incubated directly with (as indicated by-) or transfected with pRNAs using lipofectamine 2000. At 48 h post treatment, MED1 protein levels were determined by western blots.
Cell culture. […] The hydrodynamic diameter and Tm value of pRNA nanoparticles were determined using dynamic light scattering and TGGE assay, respectively, as previously described.^54 The AFM imaging of the pRNA nanoparticles was performed at the University of Nebraska Medical Center imaging facility as previously reported.^55 Briefly, the pRNA nanoparticles (5 μL) were deposited on APS modified mica ^56 for a total of 2 min of incubation time. […]
In general terms: A western blot detects proteins with antibodies after separation by electrophoresis.

B1: pRNA-HER2apt-siMED1: 3-WJ pRNA nanoparticle bearing a HER2-targeting RNA aptamer and two different MED1 siRNAs; strands p1 SEQ ID NO: 3, p2 SEQ ID NO: 4 (nucleic acid)
chain 1: GGACAGUGAAAGUGAGUCAAAGGAUCAAUCAUGGCCAAAGAUGUUACUUUGAGAGCCUU
chain 2: GGCUCUCAAAGUAACAUCUAAGGCCAUGUGUAUGUGGGGGGAGGACGAUGCGGUCUGCUGUGCUUGAUAUGCCCCAGACGACUCGCCCCCCACAUACUUUGUUGAUCCAAUGACUCACUUUCACUGUCCUU
modifications: 2'-F modification; third strand may lack entry; pRNA-HER2apt-siMED1, p1; pRNA-HER2apt-siMED1, p2
For B1, the “MED1 protein level after transfection with lipofectamine 2000” value is given as “MED1 silencing”.

B2: pRNA-HER2apt^mut-siMED1: control pRNA nanoparticle with mutant HER2 aptamer; strands p1 SEQ ID NO: 5, p2 SEQ ID NO: 6 (nucleic acid)
chain 1: B1 chain 1
chain 2: GGCUCUCAAAGUAACAUCUAAGGCCAUGUGUAUGUGGGAUGAGGAGUAUGAAGAUACCUGUACUUGAUAUGCCCCAGACGACAUUCCCCCCACAUACUUUGUUGAUCCAAUGACUCACUUUCACUGUCCUU
modifications: pRNA-HER2apt(mut)-siMED1, p1; pRNA-HER2apt(mut)-siMED1, p2
B2: the “MED1 protein level after transfection with lipofectamine 2000” value is “MED1 silencing”.
